Experimental findings from the supplement of paper PMC11316812 are described below.

One data set concerns hTERT-HMEC. The data set is described as follows: percentage of EdU-negative (G0-arrested) nuclei per well, 72 h; higher = more G0 arrest. Particulars: reference: sequence is the full UniProt precursor, the tested protein was the secreted form or ectodomain.
A further data set concerns MCF7. The description is as above. Particulars: reference: sequence is the full UniProt precursor, the tested protein was the secreted form or ectodomain.
Setting [1] is: protein concentration 0.0257143 µM.
Setting [2] is: protein concentration 0.257143 µM.
The mark [3] stands for this setting: protein concentration 0.0195 µM.
The mark [4] stands for this setting: protein concentration 0.0225 µM.
[5] abbreviates: protein concentration 0.03125 µM.
The mark [6] stands for this setting: protein concentration 0.3125 µM.
[7] abbreviates: protein concentration 0.01225 µM.
Where [8] appears, read: protein concentration 0.1225 µM.
The mark [9] stands for this setting: protein concentration 0.01775 µM.
Where [10] appears, read: protein concentration 0.1775 µM.

± gives the standard deviation of the averaged measurements.
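Note: secreted proteins added to cultured cells, EdU pulse at the end, nuclei found by Hoechst imaging, EdU status from nuclear versus surrounding ring intensity ratio, PBS as neutral control.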

“MIHTNLKKKFSCCVLVFLLFAVICVWKEKKKGSYYDSFKLQTKEFQVLKSLGKLAMGSDSQSVSSSSTQDPHRGRQTLGSLRGLAKAKPEASFQVWNKDSSSKNLIPRLQKIWKNYLSMNKYKVSYKGPGPGIKFSAEALRCHLRDHVNVSMVEVTDFPFNTSEWEGYLPKESIRTKAGPWGRCAVVSSAGSLKSSQLGREIDDHDAVLRFNGAPTANFQQDVGTKTTIRLMNSQLVTTEKRFLKDSLYNEGILIVWDPSVYHSDIPKWYQNPDYNFFNNYKTYRKLHPNQPFYILKPQMPWELWDILQEISPEEIQPNPPSSGMLGIIIMMTLCDQVDIYEFLPSKRKTDVCYYYQKFFDSACTMGAYHPLLYEKNLVKHLNQGTDEDIYLLGKATLPGFRTIHC”: the “percentage of EdU-negative” value in the data set on hTERT-HMEC (setting [1]) turned out to be 4.71 ± 0.62%; with hTERT-HMEC (setting [2]), 4.48 ± 0.15%; with MCF7 (setting [1]) it was 23.7 ± 0.62%; in the data set on MCF7 (setting [2]), 26.3 ± 1.7%.

Consider “MIIDSSRIPSFTQLHSTMTRAPLLLLCVALVLLGHVNGATVRNEDKWKPLNNPRNRDLFFRRLQAYFKGRGLDLGTFPNPFPTNENPRPLSFQSELTASASADYEEQKNSFHNYLKG [Q6UXQ4]”, for which the “percentage of EdU-negative” value with hTERT-HMEC (setting [3]) came to 4.53 ± 0.63%; with hTERT-HMEC (protein concentration 0.195 µM), 7.36 ± 0.4%; with MCF7 (setting [3]), 24.6 ± 2.1%; in the data set with MCF7 (protein concentration 0.195 µM) it was 25.2 ± 1%.

“MIIVAHVLLILLGATEILQADLLPDEKISLLPPVNFTIKVTGLAQVLLQWKPNPDQEQRNVNLEYQVKINAPKEDDYETRITESKCVTILHKGFSASVRTILQNDHSLLASSWASAELHAPPGSPGTSIVNLTCTTNTTEDNYSRLRSYQVSLHCTWLVGTDAPEDTQYFLYYRYGSWTEECQEYSKDTLGRNIACWFPRTFILSKGRDWLAVLVNGSSKHSAIRPFDQLFALHAIDQINPPLNVTAEIEGTRLSIQWEKPVSAFPIHCFDYEVKIHNTRNGYLQIEKLMTNAFISIIDDLSKYDVQVRAAVSSMCREAGLWSEWSQPIYVGNDEHKPLREWFVIVIMATICFILLILSLICKICHLWIKLFPPIPAPKSNIKDLFVTTNYEKAGSSETEIEVICYIEKPGVETLEDSVF”: the “percentage of EdU-negative” value in the data set with hTERT-HMEC (setting [4]) is 4.86 ± 0.92%; in the data set on hTERT-HMEC (protein concentration 0.225 µM), 5.18 ± 0.52%; in the data set with MCF7 (setting [4]) it was 25.4 ± 1.1%; in the data set with MCF7 (protein concentration 0.225 µM), 25.9 ± 1.3%.

On to “MILIPRMLLVLFLLLPILSSAKAQVNPAICRYPLGMSGGQIPDEDITASSQWSESTAAKYGRLDSEEGDGAWCPEIPVEPDDLKEFLQIDLHTLHFITLVGTQGRHAGGHGIEFAPMYKINYSRDGTRWISWRNRHGKQVLDGNSNPYDIFLKDLEPPIVARFVRFIPVTDHSMNVCMRVELYGCVWLDGLVSYNAPAGQQFVLPGGSIIYLNDSVYDGAVGYSMTEGLGQLTDGVSGLDDFTQTHEYHVWPGYDYVGWRNESATNGYIEIMFEFDRIRNFTTMKVHCNNMFAKGVKIFKEVQCYFRSEASEWEPNAISFPLVLDDVNPSARFVTVPLHHRMASAIKCQYHFADTWMMFSEITFQSDAAMYNNSEALPTSPMAPTTYDPMLKVDDSNTRILIGCLVAIIFILLAIIVIILWRQFWQKMLEKASRRMLDDEMTVSLSLPSDSSMFNNNRSSSPSEQGSNSTYDRIFPLRPDYQEPSRLIRKLPEFAPGEEESGCSGVVKPVQPSGPEGVPHYAEADIVNLQGVTGGNTYSVPAVTMDLLSGKDVAVEEFPRKLLTFKEKLGEGQFGEVHLCEVEGMEKFKDKDFALDVSANQPVLVAVKMLRADANKNARNDFLKEIKIMSRLKDPNIIHLLAVCITDDPLCMITEYMENGDLNQFLSRHEPPNSSSSDVRTVSYTNLKFMATQIASGMKYLSSLNFVHRDLATRNCLVGKNYTIKIADFGMSRNLYSGDYYRIQGRAVLPIRWMSWESILLGKFTTASDVWAFGVTLWETFTFCQEQPYSQLSDEQVIENTGEFFRDQGRQTYLPQPAICPDSVYKLMLSCWRRDTKNRPSFQEIHLLLLQQGDE”, for which the “percentage of EdU-negative” value in the data set with hTERT-HMEC (setting [4]) worked out at 4.96 ± 0.44%; in the data set on hTERT-HMEC (protein concentration 0.225 µM) it was 5.43 ± 1.3%; in the data set with MCF7 (setting [4]), 26.1 ± 1%; in the data set on MCF7 (protein concentration 0.225 µM) it was 25.9 ± 1.3%.

For “MIPAKDMAKVMIVMLAICFLTKSDGKSVKKRSVSEIQLMHNLGKHLNSMERVEWLRKKLQDVHNFVALGAPLAPRDAGSQRPRKKEDNVLVESHEKSLGEADKADVNVLTKAKSQ”, the “percentage of EdU-negative” value in the data set with hTERT-HMEC (setting [5]) was 4.88 ± 0.23%; in the data set with hTERT-HMEC (setting [6]), 6.37 ± 2%; in the data set on MCF7 (setting [5]), 25.8 ± 0.95%; with MCF7 (setting [6]), 25 ± 0.47%.

In the case of “MIPFLPMFSLLLLLIVNPINANNHYDKILAHSRIRGRDQGPNVCALQQILGTKKKYFSTCKNWYKKSICGQKTTVLYECCPGYMRMEGMKGCPAVLPIDHVYGTLGIVGATTTQRYSDASKLREEIEGKGSFTYFAPSNEAWDNLDSDIRRGLESNVNVELLNALHSHMINKRMLTKDLKNGMIIPSMYNNLGLFINHYPNGVVTVNCARIIHGNQIATNGVVHVIDRVLTQIGTSIQDFIEAEDDLSSFRAAAITSDILEALGRDGHFTLFAPTNEAFEKLPRGVLERIMGDKVASEALMKYHILNTLQCSESIMGGAVFETLEGNTIEIGCDGDSITVNGIKMVNKKDIVTNNGVIHLIDQVLIPDSAKQVIELAGKQQTTFTDLVAQLGLASALRPDGEYTLLAPVNNAFSDDTLSMDQRLLKLILQNHILKVKVGLNELYNGQILETIGGKQLRVFVYRTAVCIENSCMEKGSKQGRNGAIHIFREIIKPAEKSLHEKLKQDKRFSTFLSLLEAADLKELLTQPGDWTLFVPTNDAFKGMTSEEKEILIRDKNALQNIILYHLTPGVFIGKGFEPGVTNILKTTQGSKIFLKEVNDTLLVNELKSKESDIMTTNGVIHVVDKLLYPADTPVGNDQLLEILNKLIKYIQIKFVRGSTFKEIPVTVYTTKIITKVVEPKIKVIEGSLQPIIKTEGPTLTKVKIEGEPEFRLIKEGETITEVIHGEPIIKKYTKIIDGVPVEITEKETREERIITGPEIKYTRISTGGGETEETLKKLLQEEVTKVTKFIEGGDGHLFEDEEIKRLLQGDTPVRKLQANKKVQGSRRRLREGRSQ”, the “percentage of EdU-negative” value is 5.41 ± 1.4% in the data set on hTERT-HMEC (setting [7]), 5 ± 1.3% in the data set on hTERT-HMEC (setting [8]), 25.5 ± 0.97% in the data set with MCF7 (setting [7]) and 27.4 ± 1.6% in the data set with MCF7 (setting [8]).

In the case of “MIPGGLSEAKPATPEIQEIVDKVKPQLEEKTNETYGKLEAVQYKTQVVAGTNYYIKVRAGDNKYMHLKVFKSLPGQNEDLVLTGYQVDKNKDDELTGF”, the “percentage of EdU-negative” value in the data set with hTERT-HMEC (setting [5]) was found to be 5.99 ± 0.58%; in the data set with hTERT-HMEC (setting [6]), 5.5 ± 0.67%; in the data set with MCF7 (setting [5]) it was 26.6 ± 0.69%; in the data set with MCF7 (setting [6]), 23.6 ± 2.5%.

Consider “MIPLLLAALLCVPAGALTCYGDSGQPVDWFVVYKLPALRGSGEAAQRGLQYKYLDESSGGWRDGRALINSPEGAVGRSLQPLYRSNTSQLAFLLYNDQPPQPSKAQDSSMRGHTKGVLLLDHDGGFWLVHSVPNFPPPASSAAYSWPHSACTYGQTLLCVSFPFAQFSKMGKQLTYTYPWVYNYQLEGIFAQEFPDLENVVKGHHVSQEPWNSSITLTSQAGAVFQSFAKFSKFGDDLYSGWLAAALGTNLQVQFWHKTVGILPSNCSDIWQVLNVNQIAFPGPAGPSFNSTEDHSKWCVSPKGPWTCVGDMNRNQGEEQRGGGTLCAQLPALWKAFQPLVKNYQPCNGMARKPSRAYKI”, for which the “percentage of EdU-negative” value amounted to 5.36 ± 0.56% in the data set on hTERT-HMEC (setting [4]), 6.55 ± 0.55% in the data set on hTERT-HMEC (protein concentration 0.225 µM), 24.5 ± 0.64% with MCF7 (setting [4]) and 26.5 ± 3% in the data set with MCF7 (protein concentration 0.225 µM).

On to “MIRAAPPPLFLLLLLLLLLVSWASRGEAAPDQDEIQRLPGLAKQPSFRQYSGYLKGSGSKHLHYWFVESQKDPENSPVVLWLNGGPGCSSLDGLLTEHGPFLVQPDGVTLEYNPYSWNLIANVLYLESPAGVGFSYSDDKFYATNDTEVAQSNFEALQDFFRLFPEYKNNKLFLTGESYAGIYIPTLAVLVMQDPSMNLQGLAVGNGLSSYEQNDNSLVYFAYYHGLLGNRLWSSLQTHCCSQNKCNFYDNKDLECVTNLQEVARIVGNSGLNIYNLYAPCAGGVPSHFRYEKDTVVVQDLGNIFTRLPLKRMWHQALLRSGDKVRMDPPCTNTTAASTYLNNPYVRKALNIPEQLPQWDMCNFLVNLQYRRLYRSMNSQYLKLLSSQKYQILLYNGDVDMACNFMGDEWFVDSLNQKMEVQRRPWLVKYGDSGEQIAGFVKEFSHIAFLTIKGAGHMVPTDKPLAAFTMFSRFLNKQPY”, for which the “percentage of EdU-negative” value worked out at 5.3 ± 0.043% in the data set with hTERT-HMEC (setting [4]), 5.82 ± 0.15% with hTERT-HMEC (protein concentration 0.225 µM), 25.2 ± 3.7% in the data set on MCF7 (setting [4]) and 25.1 ± 0.47% in the data set on MCF7 (protein concentration 0.225 µM).

Turning to “MIRTLLLSTLVAGALSCGDPTYPPYVTRVVGGEEARPNSWPWQVSLQYSSNGKWYHTCGGSLIANSWVLTAAHCISSSRTYRVGLGRHNLYVAESGSLAVSVSKIVVHKDWNSNQISKGNDIALLKLANPVSLTDKIQLACLPPAGTILPNNYPCYVTGWGRLQTNGAVPDVLQQGRLLVVDYATCSSSAWWGSSVKTSMICAGGDGVISSCNGDSGGPLNCQASDGRWQVHGIVSFGSRLGCNYYHKPSVFTRVSNYIDWINSVIANN”, the “percentage of EdU-negative” value in the data set with hTERT-HMEC (setting [9]) is 6.83 ± 1.7%; in the data set with hTERT-HMEC (setting [10]) it was 24.7 ± 3.9%; in the data set with MCF7 (setting [9]), 23.79 ± 0.23%; with MCF7 (setting [10]) it was 29.6 ± 2.2%.

For the sequence “MIRTLLLSTLVAGALSCGVSTYAPDMSRMLGGEEARPNSWPWQVSLQYSSNGQWYHTCGGSLIANSWVLTAAHCISSSGIYRVMLGQHNLYVAESGSLAVSVSKIVVHKDWNSDQVSKGNDIALLKLANPVSLTDKIQLACLPPAGTILPNNYPCYVTGWGRLQTNGALPDDLKQGQLLVVDYATCSSSGWWGSTVKTNMICAGGDGVICTCNGDSGGPLNCQASDGRWEVHGIGSLTSVLGCNYYYKPSIFTRVSNYNDWINSVIANN”, the “percentage of EdU-negative” value in the data set with hTERT-HMEC (setting [4]) is 4.64 ± 0.17%; in the data set on hTERT-HMEC (protein concentration 0.225 µM) it was 5.75 ± 0.53%; in the data set with MCF7 (setting [4]), 22.3 ± 2.4%; in the data set with MCF7 (protein concentration 0.225 µM), 26.3 ± 0.6%.
